“Also recorded” adds a separate entry of the source.
Assays:
[1] = target: MMP-13 (Homo sapiens, UniProt P45452); assay: ELISA binding, cross-reactivity
[2] = system: CFPAC-1 cells; assay: Trans-well migration assay; assay type: cell-based, human; settings: 15 h post treatment, sub-lethal concentrations
Method: Trans-well migration assay: Cells were starved overnight in assay media (IMDM media containing only 1% serum). Cells (1×10^5) were added to the top chambers of 24-well transwell plates (BD Biosciences; 8 μm pore size), and assay media, with or without GSM-192, was added to both chambers. […] The numbers of cells in five fields were counted under 20× magnification, and the mean for each chamber determined.
GSM-192 Fab reduces cell motility in vitro: MMP-7 mediated E-Cadherin cleavage promotes cell migration^19, so it was hypothesized that an effective anti MMP-7 antibody directed to the activated enzyme should be able to impact migration.

[3] = target: MMP-14 (Homo sapiens, UniProt P50281); assay: ELISA binding, cross-reactivity
[4] = system: RIP1-Tag2 insulinoma (PanNET) model; assay: Late stage treatment in RIP1-Tag2 (PanNET) mice; assay type: in vivo, mouse; settings: age 10 to 12 weeks, 5 mg/kg every other day IP
Description: RIP1-Tag2: The RIP1Tag2 (RT2) murine PanNET model was developed by the fusion of Rat Insulin II promoter region to the SV40 early region that encodes the large T and small t antigens. Although oncogene expression begins during embryonic development (E8.5), the pancreatic islets initially have a normal anatomical and histological appearance (“normal” stage). Beginning at 4-5 weeks of age, hyperplastic and dysplastic islets begin to appear, rending 50% of all islets by 10 weeks of age. Angiogenic islets appear beginning around 6 weeks of age, and represent 10% of all islets at 10.5 weeks. Angiogenic islets are recognized by their dilated blood vessels and micro-hemorrhages. Tumors form beginning at 9-10 weeks and represent 2-4% of all the islets by 14 weeks. About half of the tumors at end stage evidence either focal or widespread invasion to the surrounding acinar tissue. RIP-Tag2 mice die at approximately 14 weeks of age primarily due to hyperinsulinemia.
The tumor volume was measured using x, y and z dimensions from a caliper scale.

[5] = target: T1, MMP-7 zymogen (Homo sapiens, UniProt P09237); assay: Dot blot, zymogen; assay type: binding
T1 sequence (P09237 18-267 limits assumed): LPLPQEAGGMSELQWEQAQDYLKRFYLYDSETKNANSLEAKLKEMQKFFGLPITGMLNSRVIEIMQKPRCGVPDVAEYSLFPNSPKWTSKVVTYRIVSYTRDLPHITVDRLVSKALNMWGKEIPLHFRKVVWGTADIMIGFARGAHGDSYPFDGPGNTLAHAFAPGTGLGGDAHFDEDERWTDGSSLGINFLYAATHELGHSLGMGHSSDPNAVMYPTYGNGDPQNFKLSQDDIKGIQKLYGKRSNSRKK
Method: A dot blot was performed by immobilizing 1, 1.5 and 2 μg zymogen and activated MMP-7 recombinant enzyme on nitrocellulose membrane pre wetted with TBST using a vacuum based manifold 96 well dot-blot system (GE 10447900 Minifold dot blot). The blocking was performed for 1 hour at room temperature with 3% BSA in TBST. The membrane was then probed for binding by antibody eluted in the earlier step by incubating overnight. The anti MMP-7 mAb used was at 2 ug/ml concentration in TBST. The membrane after 3 washes in TBST was incubated with goat anti mouse HRP antibody and developed using ECL to determine the selectivity of binding towards catalytic form only.

[6] = target: MMP-9 (Homo sapiens, UniProt P14780); assay: ELISA binding, cross-reactivity
MMP-9, sequence (P14780 94-707, species assumed): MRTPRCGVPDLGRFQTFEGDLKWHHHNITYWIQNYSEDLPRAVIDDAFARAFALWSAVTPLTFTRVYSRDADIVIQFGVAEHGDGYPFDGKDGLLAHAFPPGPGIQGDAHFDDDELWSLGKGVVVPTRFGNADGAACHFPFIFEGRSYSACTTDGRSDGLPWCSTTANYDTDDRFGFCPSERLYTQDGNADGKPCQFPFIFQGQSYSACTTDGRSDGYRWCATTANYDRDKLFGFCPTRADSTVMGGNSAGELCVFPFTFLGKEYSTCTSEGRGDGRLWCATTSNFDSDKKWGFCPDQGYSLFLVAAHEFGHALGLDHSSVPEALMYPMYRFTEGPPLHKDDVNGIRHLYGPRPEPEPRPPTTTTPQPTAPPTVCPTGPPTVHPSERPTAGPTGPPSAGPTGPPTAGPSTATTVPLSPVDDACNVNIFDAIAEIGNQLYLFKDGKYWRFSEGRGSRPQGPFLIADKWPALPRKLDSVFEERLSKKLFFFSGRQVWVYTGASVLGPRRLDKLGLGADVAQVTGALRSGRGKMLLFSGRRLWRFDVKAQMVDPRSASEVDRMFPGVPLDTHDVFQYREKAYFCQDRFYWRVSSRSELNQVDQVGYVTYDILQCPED

[7] = target: MMP-12 (Homo sapiens, UniProt P39900); assay: ELISA binding, cross-reactivity
MMP-12, sequence (P39900 106-470): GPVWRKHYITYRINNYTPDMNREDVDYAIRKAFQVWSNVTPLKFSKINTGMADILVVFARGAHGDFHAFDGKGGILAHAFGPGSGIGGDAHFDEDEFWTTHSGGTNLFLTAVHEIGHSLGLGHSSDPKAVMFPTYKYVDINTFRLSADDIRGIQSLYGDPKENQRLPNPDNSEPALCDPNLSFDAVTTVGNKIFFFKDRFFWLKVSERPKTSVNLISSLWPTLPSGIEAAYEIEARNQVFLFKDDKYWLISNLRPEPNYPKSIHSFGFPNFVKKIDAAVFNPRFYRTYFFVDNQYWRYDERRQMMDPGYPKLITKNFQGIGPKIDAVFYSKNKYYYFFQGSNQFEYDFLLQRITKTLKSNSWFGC

B1: GSM-192: monoclonal antibody to MMP-7 binding the catalytic domain, not the zymogen; VL SEQ ID NO: 1, VH SEQ ID NO: 2 (antibody, V domains shown)
VH: EVQLQQSGPELVKPGASVKIPCKASGYTFTDYNMDWMKQSHGKSLEWIGHINPNNGGTFYNQKFKDKATFIVDKSSNTAYMELRSLTSEDTAVYFCARGGGLRRGPFAYWGQGTLVTVS
VL: DIVTQSPASLAVSLGQRATISCRASESFDSYGNTFVHWYQQKPGQPPKLLIYLVSNLESGVPAGFRGRGSRTDFTLTIDPVEADDAATYYCQQNNEDPYTFGGGTKLEIKRA
modifications: GSM-192 Heavy Chain Sequence; GSM-192 Light Chain Sequence
- crossreactivity to MMP-13 [1]: did not show crossreactivity
- cells migrating across the transwell membrane [2]: almost by half; also recorded: reduces cells migrating across the transwell membrane significantly
- crossreactivity to MMP-14 [3]: did not show crossreactivity
- tumor volume relative to control group [4]: less than half
- binding to zymogen form of MMP-7 [5]: not the zymogen form; also recorded: did not bind
- crossreactivity to MMP-9 [6]: did not show crossreactivity
- crossreactivity to MMP-12 [7]: did not show crossreactivity

— US12291578B2, “Anti-matrix metalloproteinase 7 (MMP-7) inhibitory antibody and uses thereof” (Yeda Research and Development Co. Ltd., priority 2019, dated 2025)
